pKd: −log10 of the molar value.
Legend:
[1] = target: human FcRn (heterodimer of an alpha chain and a β2-microglobulin subunit), soluble (human) (UniProt P55899); assay: FcRn affinity at pH 6.0, as shown in FIG. 24 (BIAcore, human FcRn)
[2] = target: human FcRn (heterodimer of an alpha chain and a β2-microglobulin subunit), soluble (human) (UniProt P55899); assay: SPR (BIAcore 3000), soluble human FcRn injected over chip-coupled IgG, pH 6.0, 25 C; monovalent KD (b) determined by fitting the steady state RU against concentration
[3] = target: human FcRn (heterodimer of an alpha chain and a β2-microglobulin subunit), soluble (human) (UniProt P55899); assay: SPR (BIAcore 3000), IgG injected over chip-coupled human FcRn, pH 6.0, 25 C; apparent (bivalent) KD estimated from the steady state curves of FIG. 1, Run 1
[4] = target: cynomolgus monkey FcRn (cyno alpha chain and cyno β2-microglobulin), soluble (cynomolgus monkey) (UniProt Q8SPV9); assay: SPR (BIAcore 3000), soluble cyno FcRn injected over chip-coupled IgG, pH 6.0, 25 C; monovalent KD (b) determined by fitting the steady state RU against concentration
Chain of UniProt Q8SPV9 (Q8SPV9 24-297 limits assumed, chain 1 of 2): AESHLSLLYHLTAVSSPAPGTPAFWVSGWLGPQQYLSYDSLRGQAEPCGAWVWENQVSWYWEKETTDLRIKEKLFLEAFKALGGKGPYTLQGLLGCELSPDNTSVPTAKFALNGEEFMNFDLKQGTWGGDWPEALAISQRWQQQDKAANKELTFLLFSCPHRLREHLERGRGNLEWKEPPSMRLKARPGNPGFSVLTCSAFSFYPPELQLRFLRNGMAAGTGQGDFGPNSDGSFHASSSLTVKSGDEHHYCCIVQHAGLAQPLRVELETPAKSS
Chain of UniProt Q8SPV9 (Q8SPW0 21-119 limits assumed, chain 2 of 2, further chain): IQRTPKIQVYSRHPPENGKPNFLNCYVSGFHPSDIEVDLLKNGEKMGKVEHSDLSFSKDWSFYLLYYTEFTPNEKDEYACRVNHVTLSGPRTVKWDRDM

[5] = target: human FcRn (heterodimer of an alpha chain and a β2-microglobulin subunit), soluble (human) (UniProt P55899); assay: SPR (BIAcore 3000), soluble human FcRn injected over chip-coupled IgG, pH 6.0, 25 C; monovalent KD (a) determined by ratio of koff to kon
[6] = target: cynomolgus monkey FcRn (cyno alpha chain and cyno β2-microglobulin), soluble (cynomolgus monkey) (UniProt Q8SPV9); assay: SPR (BIAcore 3000), soluble cyno FcRn injected over chip-coupled IgG, pH 6.0, 25 C; monovalent KD (a) determined by ratio of koff to kon
[7] = target: human FcRn (heterodimer of an alpha chain and a β2-microglobulin subunit), soluble (human) (UniProt P55899); assay: SPR (BIAcore 3000), IgG injected over chip-coupled human FcRn, pH 6.0, 25 C; apparent (bivalent) KD estimated from the steady state curves of FIG. 1, Run 2
[8] = target: human FcRn (heterodimer of an alpha chain and a β2-microglobulin subunit), soluble (human) (UniProt P55899); assay: SPR, bivalent IgG over human FcRn-coupled chip, steady state, apparent KD, pH 6.0, 25 C, second run (about two fold higher RU of FcRn)
[9] = target: human FcRn (heterodimer of an alpha chain and a β2-microglobulin subunit), soluble (human) (UniProt P55899); assay: SPR (BIAcore), soluble human FcRn injected over chip-coupled IgG, pH 6.0, 25 C, monovalent KD
[10] = target: human FcRn (heterodimer of an alpha chain and a β2-microglobulin subunit), soluble (human) (UniProt P55899); assay: SPR, soluble human FcRn injected over IgG-coupled chip, monovalent KD, pH 6.0, 25 C
[11] = target: human FcRn (heterodimer of an alpha chain and a β2-microglobulin subunit), soluble (human) (UniProt P55899); assay: SPR, human FcRn; fold over wildtype, summarized from FIGS. 4 and 5
[12] = target: cynomolgus monkey FcRn (cyno alpha chain and cyno β2-microglobulin), soluble (cynomolgus monkey) (UniProt Q8SPV9); assay: SPR (BIAcore 3000), soluble cyno FcRn injected over chip-coupled IgG, pH 6.0, 25 C
[13] = target: human FcRn (heterodimer of an alpha chain and a β2-microglobulin subunit), soluble (human) (UniProt P55899); assay: SPR (BIAcore 3000), soluble human FcRn injected over chip-coupled IgG, pH 6.0, 25 C

Chain of UniProt P55899 (P55899 24-297 limits assumed, chain 1 of 2): as the sequence (Q8SPV9 24-297 limits assumed, chain 1 of 2) above, with D39N, Q44E, S99G, G189S, N190S, M217L, T269S counted along it
Chain of UniProt P55899 (P61769 21-119 limits assumed, chain 2 of 2, further chain): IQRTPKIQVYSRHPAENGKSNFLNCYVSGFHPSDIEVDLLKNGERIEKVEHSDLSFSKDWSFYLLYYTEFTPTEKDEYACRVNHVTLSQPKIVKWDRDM

Q: With “IgG1 variant N434A of a different human antibody” as the substance, how does the fold higher FcRn affinity at pH 6.0 compared to the wildtype antibody [1] read?
A: 3 fold

Q: “anti-VEGF (Bevacizumab) IgG1 variant T307Q/N434A (antibody)” was tested. Which pKd [2] did it give?
A: 6.59

Q: What about the pKd [3] of the same substance?
A: 6.74

Q: And the pKd [4]?
A: 6.62

Q: And the pKd [5]?
A: 6.62

Q: And the pKd [6]?
A: 6.62

Q: What does the source list for “anti-VEGF (Bevacizumab) IgG1 variant T307Q/E380A/N434S (antibody)”?
A: pKd [2]: 6.83; pKd [4]: 6.80; pKd [5]: 6.84; pKd [6]: 6.82

Q: How did the pKd [7] turn out when “anti-VEGF (Bevacizumab) IgG1 variant T307Q (antibody)” was run?
A: 6.60

Q: With “anti-VEGF (Bevacizumab) IgG1 variant N434A (antibody)” as the substance, how does the pKd [8] read?
A: 6.60

Q: With “anti-VEGF (Bevacizumab) IgG1 variant T307Q/A378V (antibody)” as the substance, how does the pKd [7] read?
A: 7.05

Q: With “anti-HER2 (trastuzumab) IgG1 variant M252Y/V308P/N434Y (antibody)” as the substance, how does the pKd [9] read?
A: 8.43

Q: What about the fold improvement of affinity over the wild-type IgG1 [10] of the same substance?
A: 450 fold

Q: How did the pKd [7] turn out when “anti-VEGF (Bevacizumab) IgG1 variant A378V (antibody)” was run?
A: 6.30

Q: Which results are given for “anti-VEGF (Bevacizumab) IgG1 variant V308P/N434A (antibody)”?
A: pKd [7]: 8.10; pKd [2]: 7.12; pKd [4]: 7.16; pKd [5]: 7.14; pKd [6]: 7.18

Q: “anti-VEGF (Bevacizumab) IgG1 variant N434H (antibody)” was tested. Which Bivalent Affinity Fold increase at pH 6.0 [11] did it give?
A: 9 fold

Q: What about the Bivalent Affinity Fold increase at pH 7.4 [11] of the same substance?
A: 6 fold

Q: And the Monovalent Affinity Fold increase at pH 6.0 [11]?
A: 3 fold

Q: And the pKd [7]?
A: 7.00

Q: And the pKd [2]?
A: 6.33

Q: And the koff [12]?
A: 0.218 s⁻¹

Q: What about the kon [12] of the same substance?
A: 480000 M⁻¹ s⁻¹

Q: And the pKd [4]?
A: 6.33

Q: And the koff [13]?
A: 0.166 s⁻¹

Q: What about the kon [13] of the same substance?
A: 400000 M⁻¹ s⁻¹

Q: And the pKd [5]?
A: 6.38

Q: And the pKd [6]?
A: 6.35

Q: With “anti-VEGF (Bevacizumab) IgG1 variant T307Q/A378V/Y436I (antibody)” as the substance, how does the pKd [7] read?
A: 7.52

Q: How did the pKd [7] turn out when “anti-VEGF (Bevacizumab) IgG1 variant T307Q/Y436I (antibody)” was run?
A: 7.15

Q: How did the pKd [9] turn out when N434A (antibody) was run?
A: 6.24

Q: How did the pKd [9] turn out when N434W (antibody) was run?
A: 7.36
